Positions of bridges follow the written chain, without caps; N, C: chain ends. Non-standard residues stand in square brackets, D forms with d. Residues, ends and D or L forms follow the SMILES beside them. *: point of attachment. DOTA = O=C(O)CN1CCN(CC(=O)O)CCN(CC(=O)*)CCN(CC(=O)O)CC1; dPhe(4-NHCONH2) = NC(=O)Nc1ccc(C[C@@H](N)C(=O)O)cc1; Dihydroorotyl(S) = O=C1C[C@@H](C(=O)*)NC(=O)N1; Phe(4-Cl) = N[C@@H](Cc1ccc(Cl)cc1)C(=O)O; Phe(4-NH2) = Nc1ccc(C[C@H](N)C(=O)O)cc1
Columns and labels:
[1] = system: human CD34+ HSPC subpopulations; test: Cell proliferation (CellTrace Violet) and cell death after radioligand treatment; assay type: cell-based; details: 50 kBq/well, 4 days
Experimental: BMMCs were thawed in 90% IMDM with GlutaMAX, 10% FBS, and 20 µg/ml DNAse. Cells were washed and resuspended in cold FACS buffer for CD34+ isolation using the Miltenyi Biotec CD34 MicroBead Kit (#130-046-702) as per manufacturer instructions. CellTrace™ Violet (CTV, Thermo Scientific, C34557) staining was conducted based on the CD34^+ cell count (0.05 µl CTV/ml/ 1,500,000 cells) to determine the number of divisions undergone by a cell at the time of analysis. Following a 20 min incubation at 37 °C, the cells were centrifuged and resuspended in serum-free medium composed of IMDM with GlutaMAX and 20% BIT9500 (Stem Cell Technologies, 09500) supplemented with three cytokines involved in stem cell maintenance: SCF (50 ng/ml, PeproTech, 300-07), TPO (12.5 ng/ml, PeproTech, 300-18), andFlt3-L (50 ng/ml, PeproTech, 300-19). 30,000 cells were seeded in 24-well plates and analyzed by flow cytometry either immediately (day 0) or after a 4-day incubation period at 37 °C with 5% CO2 (day 4) following 30 min antibody staining and additional 15 min Annexin V (APC) binding (Biolegend, 640920). The antibodies used were as follow: CD34-APC-Cy7 (Biolegend, 343514), CD38-FITC (Biolegend, 356610), CD90-PE-Cy5 (Biolegend, 328112), CD123-PE (Biolegend, 306006), CD45RA-PE-Cy7 (Biolegend, 202316).
For radioligand treatment, cells were treated with 50 kBq/well (500 µl/well; 200 MBq/nmol) of^ 177Lu-DOTA-TOC or ^177Lu-DOTA-JR11 for the entire incubation period of 4 days. […] Untreated cells served as controls. A total of n=16 samples were analyzed.
In this experiment, flow cytometry was conducted on a Miltenyi MACSQuant analyzer equipped with three lasers - blue (488 nm, 30 mW), red (640 nm, 20mW), and violet (405 nm, 40 mW). For each sample, 50,000 events were recorded. MACSQuantify™ Software was used for data acquisition and Flowjo 9.0-10.10 (BD Biosciences, USA) was employed for flow cytometric data analysis. […] To simplify the comparison between groups, we calculated a “proliferation score” per sample. The proliferation score was defined as the weighted sum of all proliferations using the formula: "Proliferation score = 1*(% one division) + 2*(% two divisions) + 3*(% three division) + 4*(% four division) + 5*(% five divisions) + 6*(% six division) + 7* (% > six divisions). A higher weighted sum indicated more cell proliferation events.

[2] = human, in vivo; cited from earlier work
[3] = human, in vivo; cited from earlier work; remark: listed apart in the source
[4] = high-sensitivity samples (n = 8)

C[C@@H](O)[C@@H]1NC(=O)[C@H](CCCCN)NC(=O)[C@@H](Cc2ccc(NC(N)=O)cc2)NC(=O)[C@H](Cc2ccc(NC(=O)[C@@H]3CC(=O)NC(=O)N3)cc2)NC(=O)[C@H](NC(=O)[C@H](Cc2ccc(Cl)cc2)NC(=O)CN2CCN(CC(=O)O)CCN(CC(=O)O)CCN(CC(=O)O)CC2)CSSC[C@@H](C(=O)N[C@H](Cc2ccc(O)cc2)C(N)=O)NC1=O [^177Lu-DOTA-JR11, metal not drawn] ({DOTA}-[Phe(4-Cl)][dC][Phe(4-NH2)](Dihydroorotyl(S))[dPhe(4-NHCONH2)]KTC[dY]-NH2; disulfide 2-7 (inferred); C-terminus assumed)
Cell death compared to untreated cells ([1]; HSPC subpopulations): highest rates of cell death
Proliferation compared to untreated cells, across all subpopulations ([1]; n = 16, all HSPC subpopulations): 69-79%
Proliferation in HSC relative to untreated, mean ± SD [1, 4]: 42 ± 17%
Proliferation in HSC relative to untreated, median [1, 4]: 44%
Patients with prolonged grade 4 hematotoxicity [2]: 4 of 7
Incidence of t-MN [3]: 5%
Patients with t-MN [3]: 2/40
